We go through 167 variants from the RNAGym collection of RNA variant scans (doi:10.7554/elife.80360).

First the molecules themselves.
B1: Hammerhead Ribozyme (parent)
chain: ACCGGAUGUGCUUUCCGGUCUGAUGAGUCCGUGAGGACGAAACAG

In this data set the parent is B1. Briefly: self-cleavage, relative activity (ratio to wild type); higher = more cleavage; co-transcriptional.
As to U19C A23G, the self-cleavage amounted to 0.369. With C2U G5A the figure was 0.633. The same measure for A23U G27A: 0.32; for G18C A26U: 0.334.

Turning to G4U A26C, the self-cleavage turned out to be 0.35.

Regarding U7G A40C, the self-cleavage was 0.396.

For the variant U9C G25A, the self-cleavage came to 0.312.

U21G G39U: the self-cleavage is 0.37. With C29A G33C the figure was 0.442; with C15G C29G, 0.485. For G4A U14G, the self-cleavage amounted to 0.542. Take U12A U19A: the self-cleavage amounted to 0.419.

As for G18C G35C, the self-cleavage amounted to 0.35.

As to U7A A34C, the self-cleavage was 1.78. Regarding C3A U32G, the self-cleavage worked out at 0.355. C20G A44C: the self-cleavage is 0.278. The same measure for C3G U32A: 0.639. The same measure for G27U: 0.561; for G10A C38A: 0.814. With A1C G5A the figure was 0.483; with G25U A26G, 0.298.

Take A26G A34U: the self-cleavage is 0.353. With U13C U24G the figure was 0.837; with G10U G18A, 0.836.

Take U24A G27A: the self-cleavage was 0.7. With G18C A42U the figure was 0.325. In the case of C3A C38U, the self-cleavage was 0.515.

For U32A G36U, the self-cleavage is 0.668.

Take A1U C43A: the self-cleavage worked out at 0.347. The same measure for A23U G36U: 0.314; for G5U A23G: 0.287; for U7C C38G: 0.533. With G35C A42G the figure was 0.26; with C11G A42U, 0.326. The same measure for U13C: 1.12; for G4U C30U: 0.558; for G4U C30G: 0.305. Take A26U G33C: the self-cleavage was determined as 0.546. With C20G C30A the figure was 0.335; with G39C A40C, 0.306. G33A A40C: the self-cleavage came to 0.792. Consider U12G C30A, for which the self-cleavage amounted to 0.795. As for C2U G31C, the self-cleavage was 0.974.

As to G25A G39U, the self-cleavage worked out at 0.351. Regarding U12G C38A, the self-cleavage was 0.711. As to U28A A34G, the self-cleavage worked out at 0.516. With G4U U21C the figure was 0.352. For C20A G31A, the self-cleavage came to 0.576. The same measure for U21C A40G: 0.371. With A6G G33U the figure was 0.863; with G25U C43A, 0.359.

C15G C20G: the self-cleavage amounted to 0.283. G5A U19G: the self-cleavage came to 0.373. The same measure for U9G U21C: 0.414. On to C2U G8C, for which the self-cleavage turned out to be 0.871. Turning to G22C C30G, the self-cleavage turned out to be 0.351. A1G U9A: the self-cleavage stood at 1.83. For U7C A34C, the self-cleavage was found to be 1.16.

For C3G A6U, the self-cleavage turned out to be 0.322. The same measure for U9A A40U: 0.367. Regarding C29A A37G, the self-cleavage came out at 0.692. The same measure for C2A A44G: 0.989. With C2A A44U the figure was 0.375; with G4U U24A, 0.442; with C3U U12G, 0.843. The same measure for U9G A41C: 0.294. As to G4A G25U, the self-cleavage stood at 0.316. With C20G G27A, the self-cleavage turned out to be 0.381. With A42C A44U the figure was 0.351. With G35U A40G the figure was 0.342; with C11A C30U, 0.87. The same measure for G22A A40U: 0.366; for C16U A26U: 0.816.

As for U9G U28C, the self-cleavage was 0.673.

On to C11A U24A, for which the self-cleavage stood at 1.14. The same measure for G27A U28A: 0.643. The same measure for U24C: 0.959; for A42U C43G: 0.255.

For the variant U12A C29G, the self-cleavage came out at 0.721. With G17U A34U the figure was 0.531.

Take G10C G36A: the self-cleavage turned out to be 0.586. With U19G U24A the figure was 0.472; with C15G G18A, 0.378. As to G18C C29U, the self-cleavage is 0.506. With C11A C29G the figure was 0.809. G10C U19C: the self-cleavage is 0.503. As to G8C U21A, the self-cleavage was 0.784. The same measure for G8C U21G: 0.432; for G8U A41C: 0.324. With C2A G25U the figure was 0.323.

As to C2U A26G, the self-cleavage is 0.34.

C2G U7C: the self-cleavage stood at 0.373. With C2U U32G the figure was 1.04; with A26U C29G, 0.475; with U28A, 0.822. G4U U32C: the self-cleavage came out at 0.487.

Take A1C U12C: the self-cleavage was 0.373.

With C30G A40G, the self-cleavage is 0.305.

As for U9A U12G, the self-cleavage came out at 0.802.

As to G22C A26C, the self-cleavage came to 0.3. Consider C11G G17U, for which the self-cleavage is 0.589. As to C16U G25A, the self-cleavage was determined as 0.338. With G25C A37G the figure was 0.321. With C11U A26U the figure was 0.64; with C11U A26C, 0.433; with C29G C30A, 0.432.

With G27A A37C, the self-cleavage worked out at 0.743. G10U C30A: the self-cleavage worked out at 0.844.

As to A26G C29A, the self-cleavage came to 0.402. For the variant C3G U21C, the self-cleavage is 0.413.

On to G10C C38U, for which the self-cleavage was 1.16.

With U21A A37C, the self-cleavage turned out to be 0.529. Take G17U G33A: the self-cleavage came out at 0.862.

As for C2A C29U, the self-cleavage was found to be 0.584. The same measure for C2A C3U: 0.312. Regarding A40G A41G, the self-cleavage came to 0.346. As for G18U C43U, the self-cleavage is 0.402. The same measure for G22U G36A: 0.316; for U9C G35U: 0.713.

As for A26C A37U, the self-cleavage turned out to be 0.506. Turning to A26C A37C, the self-cleavage was found to be 0.518. Regarding C3U G36C, the self-cleavage came out at 0.424. With C20G A34C the figure was 0.365; with U7A A37G, 0.907; with A1C G17U, 0.346. With G8A C38G the figure was 0.708; with U21C G27U, 0.361.

G4U U9A: the self-cleavage came out at 0.395. Consider U24A G45A, for which the self-cleavage worked out at 0.75. With G22C A40U the figure was 0.342; with G27C U28C, 0.431.

In the case of U32A A40U, the self-cleavage was 0.405. As to C20A G25C, the self-cleavage is 0.287. With U9G A44U the figure was 0.388. With G18U G25A the figure was 0.369.

With A23U G25A, the self-cleavage was determined as 0.267. The same measure for U9A C43G: 0.458; for C3U G17C: 0.675; for U9G C20G: 0.422. The same measure for C2U U24C: 1.35; for A40U A44C: 0.474; for A6G A40U: 0.247. For the variant U12G A37G, the self-cleavage was 1.02.

As to G5C U13C, the self-cleavage turned out to be 0.681. The same measure for U21C G45A: 0.436. With C38G G45A the figure was 0.461; with A6G G31A, 0.853; with C3U G33U, 0.991. The same measure for G5A G35A: 0.642; for G8U A40U: 0.301. On to C2G G17U, for which the self-cleavage came to 0.291. As to G31C G45C, the self-cleavage was determined as 0.515. On to C16U G45A, for which the self-cleavage stood at 0.89. For U12C G22C, the self-cleavage worked out at 0.337.

As to U14G G31A, the self-cleavage came to 0.929.

For the variant G10U A40C, the self-cleavage turned out to be 0.548. As to G18U G33A, the self-cleavage is 0.948. With C16U G31U the figure was 1.2. With G10A A37G the figure was 0.639; with U32A G33C, 0.846. On to A37C G39C, for which the self-cleavage was 0.316. The same measure for C2A C16G: 0.363; for U7G U28A: 0.991; for G8A U24G: 1.32. In the case of G27A G39A, the self-cleavage is 0.247.

Turning to G27A G39C, the self-cleavage came out at 0.285.

For the variant C30A G39A, the self-cleavage turned out to be 0.348.
